Results published in patent publication US20250026833A1 (WUXI BIOLOGICS IRELAND, published 2025).

Target: T1, hPD-L1-ECD.mFc, W315-hPro1.ECD.mFc (in house) (human, UniProt Q9NZQ7 19-238)
T1 construct: extracellular domain; also called Human PD-L1, mFc tag; not shown: C-terminal mouse Fc
Assay: dual binding (bridging) ELISA: plate coated with hVEGF.his, titrated antibody, then hPD-L1-ECD.mFc at 1 ug/ml, HRP goat anti-mouse IgG

T1 sequence (Q9NZQ7 19-238): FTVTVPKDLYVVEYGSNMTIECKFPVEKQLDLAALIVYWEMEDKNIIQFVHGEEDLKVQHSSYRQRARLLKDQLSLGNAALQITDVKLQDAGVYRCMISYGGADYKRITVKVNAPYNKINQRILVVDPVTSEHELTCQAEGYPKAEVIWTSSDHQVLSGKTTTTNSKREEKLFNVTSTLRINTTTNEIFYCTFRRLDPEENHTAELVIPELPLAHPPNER

binding result: no binding (tested: 100 nM)
B1: Avastin (bevacizumab) (antibody, human IgG1, V domains shown)
VH: EVQLVESGGGLVQPGGSLRLSCAASGYTFTNYGMNWVRQAPGKGLEWVGWINTYTGEPTYAADFKRRFTFSLDTSKSTAYLQMNSLRAEDTAVYYCAKYPHYYGSSHWYFDVWGQGTLVTVSS
VL: DIQMTQSPSSLSASVGDRVTITCSASQDISNYLNWYQQKPGKAPKVLIYFTSSLHSGVPSRFSGSGSGTDFTLTISSLQPEDFATYYCQQYSTVPWTFGQGTKVEIK
notes: also called parental anti-VEGF antibody
